We go through 20 sequences from the DeepSol protein solubility set.

A short description of this data set: soluble on expression in E. coli; label from the status in PepcDB or PDB records.
With “MKPKLILMSHGRMAEETLASTQMIVGELADAAIVSMTAEDGLSGTQAKLAAILKEAGNVPTLVLADLKGGTPCNVAMMAMGTYPQLRVVAGLNLAMAIEAAVSPVENVDELAAYLTQIGQSAVTTIDLPELTDEEEFEE”, the “soluble on expression in E. coli” value is given as “soluble”. With “MGHHHHHHSHAELSANQSRIDALEKAGQKLIDVNHYAKDEVAARMNEVISLWKKLLEATELKGIKLREANQQQQFNRNVEDIELWLYEVEGHLASDDYGKDLTNVQNLQKKHALLEADVAAHQDRIDGITIQARQFQDAGHFDAENIKKKQEALVARYEALKEPMVARKQKLADSLRLQQLFRDVEDEETWIREKEPIAASTNRGKDLIGVQNLLKKHQALQAEIAGHEPRIKAVTQKGNAMVEEGHFAAEDVK” the entry was “soluble”; with “MGSDKIHHHHHHMKLSINKNTLESAVILCNAYVEKKDSSTITSHLFFHADEDKLLIKASDYEIGINYKIKKIRVESSGFATANAKSIADVIKSLNNEEVVLETIDNFLFVRQKSTKYKLPMFNHEDFPNFPNTEGKNQFDIDSSDLSRSLKKILPSIDTNNPKYSLNGAFLDIKTDKINFVGTDTKRLAIYTLEKANNQEFSFSIPKKAIMEMQKLFYEKIEIFYDQNMLIAKNENFEFFTKLINDKFPDYEKVIPKTFKQELSFSTEDFIDSLKKISVVTEKMRLHFNKDKIIFEGISLDNMEAKTELEIQTGVSEEFNLTIKIKHLLDFLTSIEEEKFTLSVNEPNSAFIVKSQGLSMIIMPMIL”, “not soluble”; with “SERTQSSNMETRLDAMKELAKLSADVTFATEFINMDGIIVLTRLVESGTKLLSHYSEMLAFTLTAFLELMDHGIVSWDMVSITFIKQIAGYVSQPMVDVSILQRSLAILESMVLNSQSLYQKIAEEITVGQLISHLQVSNQEIQTYAIALINALFLKAPEDKRQDMANAFAQKHLRSIILNHVIRGNRPIKTEMAHQLYVLQVLTFNLLEERMMTKMDPNDQAQRDIIFELRRIAFDAESDPSNAPGSGTEKRKAMYTKDYKMLGFTNHINPAMDFTQTPPGMLALDNMLYLAKVHQDTYIRIVLENSSREDKHECPFGRSAIELTKMLCEILQVGELPNEGRNDYHPMFFTHDRAFEELFGICIQLLNKTWKEMRATAEDFNKVMQVVREQITRALPSKPNSLDQFKSKLRSLSYSEILRLRQSERMSQDDFQSPPIVELREKIQPEILELIKQQRLNRLCEGSSFRKIGNRRRQERFWYCRLALNHKVLHYGDLDDNPQGEVTFESLQEKIPVADIKAIVTGKDCPHMKEKSALKQNKEVLELAFSILYDPDETLNFIAPNKYEYCIWIDGLSALLGKDMSSELTKSDLDTLLSMEMKLRLLDLENIQIPEAPPPIPKEPSSYDFVYHYG”, “not soluble”. For “MDELRELLKAEQQAIKIYKEVLKKAKEGDEQELARLIQEIVKAEKQAVKVYKEAAEKARNPEKRQVIDKILEDEEKHIEWLKAASKQGNAEQFASLVQQILQDEQRHVEEIEKKN”, the “soluble on expression in E. coli” value is on record as “soluble”. With “MQFLQKFPPFNQMENAHLAYLVEQCQLRFYAADESIIKPGDGPVEHFYIVKQGRIVGERPHSAKRGTETTFEITTGECFPLAALLGERATRTEHLAAEDTFCLQLNKQAFIKLFALSTTFRDFALRGVSSLLDQVNQQVQQRAAETLGTQYSLNTRLGELAMRHPVMCSPDMPMRDAVKLMHEQQVGSIVIVDEQQAPLGIFTLRDLREAVADVNADFSAPVKNTMSPSPFHLSPDASAFDAAIAMTGRHIAHVCLVRDGRLCGVVSERDLFSLQRVDLVHLARTIRNAPRIEALAGLRGDIVQLVDRMLAHGASSTQITQIITLLNDHTVCRVIELTLAEKGDPGVPFSWLCFGSEGRREQTLHTDQDNGILFEASDATEAEQIRTLLLPIAERINQSLAQCGFTLCKGNIMAGNPDLCLSRLEWSRRFSAFIREATPENLLASSIYFDLRVVWGDESGGGQLRRGILDQVADNRLFQRMMAENALRQRPPVGRFKDFVLARKGSEKDTLDLKTEGLTPFVDGARLLALANGIGVNNTQERLRQLVEREVIDPLDGAAYEEAYHFIQQTRMQQHQLQSRQNLAYSNRIDPDTLNHLDRRILRESFRQAQRLQMSLTMRYQL” the entry was “not soluble”.

With “MKRTGILLVNLGTPKDSSKTEVRKYLKTFLSDRRVIKIHPIIWKPILNGIILNIRPKKSAKLYQKICTENGFPLLEYTEKQMENLKNICPEVEVTIGMSYSEPSIETALDTLLSKEIEELNVIPMYPQYSGTTVGSVFDSVMNYFIKSDRIVDIKFIRSFYNNPQYIDYFSKKINEALNESPIDAIVFSYHGIPMSYVKDGDNYPKECTK”, the “soluble on expression in E. coli” value is recorded as “not soluble”.

In the case of “MIYVTFTPYGAFGVKDNKEVSGLEDIEYKKLFNEEEIPDIMFKLKTQPNKIADELKEEWGDEIKLETLSTEPFNIGEFLRNNLFKVGKELGYFNNYDEFRKKMHYWSTELTKKVIKSYAQQKDKIIIQVAEAISDLDKTLNLLSERLREWYSLYFPELDHLVNKHEVYANLITKLGKRKNFTKSQLKKILPSKLAGKIAEAAKNSMGGELEDYDLDVIVKFAEEINHLYEKRKELYNYLEKLMNEEAPNITKLAGVSLGARLIGLAGGLEKLAKMPASTIQVLGAEKALFAHLRMGVEPPKHGIIYNHPLIQGSPHWQRGKIARALACKLAIAARADYVGDYIADELLEKLNKRVEEIRRKYPKPPKKKKKEKPKAKKKEKKGKKEKSKKKKDKKKDKKGKKERKVIGKTKSRKLEHHHHHH”, the “soluble on expression in E. coli” value is “soluble”. The value for “MSHGSPAPSASVSSDGEEPEIDVMPSSDEESEPIYIPKEKEPVVIRGVGNITVFGMNSRFNTEYPPELTGYIAPEELSATLSRVNSVLKRHVQTSSRWLLCGLAFCCCSIGCSMWPVLCLNRRTVLALEKCLDHENVSLYHKLGLHWSLARRPTEPSDRLTEYVLELKTLPKPALNLPD” was “not soluble”; that for “MGSDKIHHHHHHMSIAIIIATHGVAAEQLLKTTEMLIGEQENVATIDFVSGENAETIMTKYQEKLSTTLAHCDEVLFLVDTWGGSPFNAANRVIGDNTNMDIVTGVNVPMLVETFMARDDNPSLQELVSIALETGRAGVRALKYEEKSAETTALSQPVPEQPQIAVKQQEGNLIVGLARIDDRLIHGQVATRWTKESRVTRIVVVNDDVAKDQVRSTMLKSVAPPGVTAHVVNIEKMIRVYNNPEYANERMMLLFTNPTDVLRLLEAGVDMKSINVGGMAYKDGKKMITSAVAVDDKDIAAFKAIDAMGIELDVRKVSNDSRQYMMDLLKKNNLI” was “not soluble”; that for “MGSDKIHHHHHHMLLQRSTWPEVEAYLQQSDGIIIPIGSTEQHGPTGLIGTDAICAEAIAQGVADRTQALVGPTINVGMALHHLGFPGSVSLRPSTLLQVIVDYLSSLAQHGFRHFYFINGHGGNIATVRAAFAEFYAVAGDRRCPEPDRLRCHLANWFMVPAVTKLARELYGDEEGSHATPSEVALTQFIYPDSIKTAPLTVEVHSSHAIYAADDFRRRYPDGRMGSNPALATPEHGQQFYESAVAELSQSYQAFLAAD” was “not soluble”. With “MPSYKLSYFPVRGLAESARLLFHLAGVPFEDERVNFLDDTWEKMKGKTPMGQLPVLTVDDFEIPQSAAINRYLARKFGFAGKTPEEEAWVDAVVDQFKDFFAEFRKLVIAKRVGKSAEELEKLTAEVIKPAMDVYFKVLNGLLEKSKSGYLIGDSITFADLYIADNIQTLKKYGLLEASGEQPKLAAHLEKVYSHPNLKSYIASRPVTEI” the entry was “not soluble”; with “MEKIGETMAKLGQNTRVNSDQLIQTILADPEVASFISQHHLSQEQINLSLSKFNQFLVERQKYQLKDPSYIAKGYQPILAMNEGYADVSYLETKELVEAQKQAAISERIQLVSLPKSYRHIHLSDIDVNNASRMEAFSAILDFVEQYPSAEQKGLYLYGDMGIGKSYLLAAMAHELSEKKGVSTTLLHFPSFAIDVKNAISNGSVKEEIDAVKNVPVLILDDIGAEQATSWVRDEVLQVILQYRMLEELPTFFTSNYSFADLERKWATIKGSDETWQAKRVMERVRYLAREFHLEGANRRLEHHHHHH”, “soluble”.

On to “MADDFKTAQMNNPHLRNYVEKFKKTYMKVPEFVPSLSRDFKEIKYPNIIYPIGDPIFIHLYGTPNLKTRYIAIEPKLNGSEERKKYFDILDKILEYAPYSDIPENDEEFGKVVTKLFDMVAK”, for which the “soluble on expression in E. coli” value was “not soluble”. With “MTCLSRDWATAQRLVEWALASTRCECFNVDSNFMAGLCLVENPTKQHYSFEVRKQVVDRFNAGQSKMDLAREFGLSSDQLVSSWVRAWRAGGDEALRPKPKGRPKGSASSKPLTEEDRLRREVEKLRAENAYLKKLRDLRNQRRSLEHHHHHH” the entry was “soluble”.

Take “MVERTAVFPAGRHSLYAEHRYSAAIRSGDLLFVSGQVGSREDGTPEPDFQQQVRLAFDNLHATLAAAGCTFDDIIDVTSFHTDPENQFEDIMTVKNEIFSAPPYPNWTAVGVTWLAGFDFEIKVIARIPEQ”: the “soluble on expression in E. coli” value is reported as “soluble”. With “MDFNLNDEQELFVAGIRELMASENWEAYFAECDRDSVYPERFVKALADMGIDSLLIPEEHGGLEAGFVTVAAVWMELGRLGAPTYVLYQLPGGFNTFLREGTQEQIDKIMAFRGTGKQMWNSAITEPGAGSDVGSLKTTYTRKNGKVYLNGSKCFITSSAYTPYIVVMARDGASPDKPVYTEWFVDMSKAGIKVNKLEKLGLRMDSCCEITFDDVELDEKDMFGREGNGFNRVKEEFDHERFLVALTNYGTAMCAFEDAARYANQRVQFGEAIGRFQLIQEKFAHMAIKLNSMKNMLLEAAWKADNGTITSGDAAMCKYFCANAAFEVVDTAMQVLGGVGIAGNHRITRFWRDLRVDRVSGGSDEMQILTLGRAVLKQYR” the entry was “not soluble”. With “MGSDKIHHHHHHMKAILIDDDQPTLFILNKMLAKIPRVEIVGEFLNAGDAYHFLKHNPVELAFVDIKMPGESGLDFAWRSLAEFPDLYVVFLTAYKDYAVEAFEVQAFDYIVKPIQQERLERTVSRVLQRKAAGISSRNTVEQAKVLFVYCLGGLDLRNTNDDFVMISSSKGQELFAYLLVHRERLTSKWRIMEDVFQGMSPQNAETYLNTTVYKLRKVLEQYGKRSAIVVASESYVMEIKDFYIDFIEFENKVRTLPSITEANLQEAIQTFHLFAGELFGDKDYQWSLAEKERLGDIYCSFAKKLGRYLLENQNSALALQVFKKLVAINELDEESHCFLLQVYAAQNDLPSLIRHYDRYVQLLQRELAISPSNRTAQLFLSLKKSLL” the entry was “not soluble”. Consider “GHMTWEHNEFMQMTVKPFLIPADKVAHVQPGNYLDHALLVLTKTGYSAIPVLDTSYKLHGLISMTMMMDAILGLERIEFERLETMKVEEVMNRNIPRLRLDDSLMKAVGLIVNHPFVCVENDDGYFAGIFTRREVLKQLNKQLHRPNGGRKLGRKEAEQ”, for which the “soluble on expression in E. coli” value was “soluble”. On to “AHHHHHHGSEEKIILFVCVKNSARSQMAEAFFNYYNDDPRFKAMSAGTEPADDIDPLAKKVMEEIGISLEGQKPKLYTPEMADKAYIVITMGCLDKCPYAPPEKTWDWGLEDPYGKPIEKYREVRDEIKRRVLKLIEDLKAGKSREEIIGRKSLFAI”, for which the “soluble on expression in E. coli” value is reported as “soluble”.
